What all share (assay): FRET or BRET; FLIM-FRET (EGFP donor lifetime, mCherry acceptor) in living U2OS cells co-transfected with both constructs, imaged in PBS 42-45 h after transfection, normal cytosolic calcium; E = 1 - tauDA/tauD from amplitude-weighted mean lifetimes
One experiment deals with T1, EGFP-ANXA2 (human, UniProt P07355 1-339).
T1 construct: human annexin A2 (ANXA2) with the fluorescent protein tag in the altered orientation (EGFP-ANXA2); The cloning of this orientation is not described in the methods; source: U2OS or HEK293T cells, transfected (calcium phosphate), in living cells; not shown: EGFP, N-terminal, kept

For a further experiment, the target named is T2, ANXA2-EGFP (human, UniProt P07355 1-339).
T2 construct: human annexin A2 (ANXA2); EGFP is the FRET donor; also called annexin A2; source: U2OS cells, transfected (calcium phosphate), in living cells; not shown: EGFP, C-terminal, kept
Particulars: partners not purified.

The target in another experiment is T3, ANXA4-EGFP (human, UniProt P09525 1-319).
T3 construct: human annexin A4, PCR amplified from A431 cDNA; cloned in pEGFP-N1 (HindIII, BamHI); also called annexin A4; source: U2OS cells, transfected (calcium phosphate), in living cells; not shown: EGFP, C-terminal, kept
T3 sequence (looked up): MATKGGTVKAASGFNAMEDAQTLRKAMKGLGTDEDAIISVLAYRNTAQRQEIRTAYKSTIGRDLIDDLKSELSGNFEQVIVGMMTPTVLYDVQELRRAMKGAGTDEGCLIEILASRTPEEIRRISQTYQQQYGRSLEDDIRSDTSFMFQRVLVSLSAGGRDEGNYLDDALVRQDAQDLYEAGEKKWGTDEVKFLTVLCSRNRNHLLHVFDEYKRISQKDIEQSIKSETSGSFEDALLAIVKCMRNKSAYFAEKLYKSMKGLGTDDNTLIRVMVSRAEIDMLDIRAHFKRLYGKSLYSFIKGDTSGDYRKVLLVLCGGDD
To be noted: partners not purified.

The target of the next experiment is T4, ANXA1-EGFP (human, UniProt P04083 1-346).
T4 construct: human annexin A1, PCR amplified from A431 cDNA; cloned in pEGFP-N1 (XhoI, BamHI); End of the tag read from the label ANXA1-EGFP and the vector pEGFP-N1; also called annexin A1; source: U2OS cells, transfected (calcium phosphate), in living cells; not shown: EGFP, C-terminal, kept
T4 sequence (looked up): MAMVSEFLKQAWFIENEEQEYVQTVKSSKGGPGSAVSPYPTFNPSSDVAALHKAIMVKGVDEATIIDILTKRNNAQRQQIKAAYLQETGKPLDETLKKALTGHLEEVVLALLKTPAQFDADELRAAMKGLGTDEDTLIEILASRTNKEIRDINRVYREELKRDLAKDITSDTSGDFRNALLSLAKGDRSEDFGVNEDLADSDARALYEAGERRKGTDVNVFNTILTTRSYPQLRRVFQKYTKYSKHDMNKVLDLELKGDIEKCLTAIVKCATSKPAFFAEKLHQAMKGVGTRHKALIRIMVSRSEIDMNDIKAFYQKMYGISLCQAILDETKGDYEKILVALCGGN
To be noted: partners not purified.

Another experiment deals with T5, AnxA6-EGFP (rat, UniProt P48037 1-673).
T5 construct: rat annexin A6; plasmid provided by C; End of the tag read from the label AnxA6-EGFP; also called rat annexin A6; source: U2OS cells, transfected (calcium phosphate), in living cells; not shown: EGFP, C-terminal, kept
T5 sequence (looked up): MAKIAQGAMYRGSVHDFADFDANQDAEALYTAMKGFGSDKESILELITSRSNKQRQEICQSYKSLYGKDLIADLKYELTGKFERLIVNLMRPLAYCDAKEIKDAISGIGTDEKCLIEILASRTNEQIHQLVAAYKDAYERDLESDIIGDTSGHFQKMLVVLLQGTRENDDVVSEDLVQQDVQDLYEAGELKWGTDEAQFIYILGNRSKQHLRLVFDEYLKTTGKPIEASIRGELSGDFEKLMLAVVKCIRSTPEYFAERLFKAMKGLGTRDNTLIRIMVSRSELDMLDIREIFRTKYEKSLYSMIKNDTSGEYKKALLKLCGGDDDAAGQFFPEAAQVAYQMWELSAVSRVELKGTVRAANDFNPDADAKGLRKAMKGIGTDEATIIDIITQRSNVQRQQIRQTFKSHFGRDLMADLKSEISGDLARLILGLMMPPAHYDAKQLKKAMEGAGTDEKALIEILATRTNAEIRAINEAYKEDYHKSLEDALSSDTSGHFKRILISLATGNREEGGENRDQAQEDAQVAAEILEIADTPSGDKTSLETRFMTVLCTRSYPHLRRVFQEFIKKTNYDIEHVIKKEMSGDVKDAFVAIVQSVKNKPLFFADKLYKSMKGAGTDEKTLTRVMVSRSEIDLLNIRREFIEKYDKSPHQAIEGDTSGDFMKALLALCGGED
Particulars: partners not purified.

Where two headings read alike, the source gives them in different places.

T1 sequence (P07355 whole entry): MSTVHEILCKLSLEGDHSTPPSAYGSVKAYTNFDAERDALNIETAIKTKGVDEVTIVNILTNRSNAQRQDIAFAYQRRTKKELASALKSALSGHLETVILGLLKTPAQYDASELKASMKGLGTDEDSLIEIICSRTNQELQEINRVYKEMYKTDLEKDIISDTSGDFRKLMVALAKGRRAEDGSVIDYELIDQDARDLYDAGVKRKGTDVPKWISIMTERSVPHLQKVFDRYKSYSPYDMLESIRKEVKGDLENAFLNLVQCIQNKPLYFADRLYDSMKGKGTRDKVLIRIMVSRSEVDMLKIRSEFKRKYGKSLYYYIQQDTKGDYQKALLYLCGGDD
T2 sequence (P07355 whole entry): as above

On to “S100A11ΔCa-mCherry (from UniProt P31949 1-105) (natural protein)”, for which the FRET efficiency (E) with EGFP-ANXA2 was 3.7%.

B1: S100A11-mCherry (natural protein, human, UniProt P31949 1-105, looked up)
chain: MAKISSPTETERCIESLIAVFQKYAGKDGYNYTLSKTEFLSFMNTELAAFTKNQKDPGVLDRMMKKLDTNSDGQLDFSEFLNLIGGLAMACHDSFLKAVPSQKRT
notes: human S100A11 wild type; cloned in pmCherry-N1 (EcoRI, BamHI); End of the tag read from the label S100A11-mCherry and the vector pmCherry-N1; also called S100A11wt; wild-type S100A11-mCherry; source: U2OS or HEK293T cells, transfected (calcium phosphate), in living cells; not shown: mCherry, C-terminal, kept
As to B1, the “FRET efficiency (E)” value in the experiment with ANXA2-EGFP is 7.5%; in the experiment with ANXA4-EGFP, about 5%; in the experiment with ANXA1-EGFP, 5.3%; with EGFP-ANXA2 (partners not purified) it was about 9%; in the experiment with AnxA6-EGFP it was about 6%.

The values above are taken from article PMC10988696, “FLIM‐FRET‐based analysis of S100A11/annexin interactions in living cells” (FEBS Open Bio, 2024).
